Measurements taken from patent US20200109202A1 (published 2020).

Experiments:
[1] = biological target: T1, biotinylated, recombinant human CD16A(48R-158V) fused to human IgG1 Fc portion (human, UniProt P08637 17-208, biotinylated (site not stated)); test: ELISA, coated construct, soluble CD16A(48R-158V)-Fc
T1 construct: also called CD16A soluble antigen; recombinant human CD16A soluble antigen; not shown: human IgG1 Fc portion

[2] = biological target: T2, CD16A (FcγRIIIA) on primary human NK cells (human, UniProt P08637 17-254); test: flow cytometry, DyLight650-labelled antibody on fresh human NK cells (FIG. 40A)
T2 construct: whole, on cells
Experimental: Fresh prepared human NK cells were pre-incubated for 1-hours at 37 C with and without 10 mg/mL of SCIG (Hizentra), then stained with DyLight650 labeled anti-AFM26/CD16a at indicted concentrations. […] NK (FIG. 40D) and MM.1S cells (FIG. 40C) were preincubated separately in 50% human autologous serum for 2 hours prior to assay setup. NK cells were co-cultured with MM.1S tumor cell line at an approximate E:T ration of 5, and exposed to 10-fold serial diluted test articles from 0.1-100 nM for approximately 20 hours at 37 C with 5% CO₂. Antibody staining with CD138 and CD56 followed by FACS were used to monitor cytotoxicity of MM.1S target cells and NK survival. Data were analyzed with the software programs FlowJo and GraphPad Prism 6.

[3] = biological target: T3, human CD16A-158V ECD fused to monomeric Fc (human, UniProt P08637 17-208); test: SPR, Biacore T200, receptor captured, 1:1 model
T3 construct: extracellular domain; also called CD16A-158V ECD-monomeric Fc-fusion antigen; CD16A-158V ECD-Fc fusion antigen; not shown: monomeric Fc (Ying et al. 2012), silent; Avi-tag in the SPR form

[4] = biological target: T2, CD16A (FcγRIIIA) on primary human NK …; test: flow cytometry, primary human NK cells, 37 C, with 10 mg/mL polyclonal human IgG as competitor
[5] = biological target: T3, human CD16A-158V ECD fused to monomeric …; test: ELISA, antigen coated at 1.5 µg/mL, His-tagged scFv titrated
[6] = biological target: T4, human CD16A-158F ECD fused to monomeric Fc (human, UniProt P08637 17-208, biotinylated on the Avi-tag in the SPR form); test: as above
T4 construct: extracellular domain; not shown: monomeric Fc (Ying et al. 2012), silent; Avi-tag in the SPR form

[7] = biological target: T5, Cynomolgus CD16A ECD fused to monomeric Fc (cynomolgus, UniProt Q8SPW2 17-208, biotinylated on the Avi-tag in the SPR form); test: as above
T5 construct: also called biotinylated mono-Fc(silent)-Avi-tagged cynomolgus CD16; not shown: monomeric Fc fusion partner (Avi-tag in the SPR form)

[8] = biological target: T2, CD16A (FcγRIIIA) on primary human NK …; test: flow cytometry, primary human NK cells, 37 C, buffer
[9] = biological target: T3, human CD16A-158V ECD fused to monomeric …; test: ELISA, CD16 antigen coated at 0.5 µg/mL (10 nM), without competition
[10] = biological target: T3, human CD16A-158V ECD fused to monomeric …; test: ELISA, CD16 antigen coated at 0.5 µg/mL (10 nM), with 8-10 nM 3G8 IgG as competitor

T3 sequence (P08637 17-208 F176V): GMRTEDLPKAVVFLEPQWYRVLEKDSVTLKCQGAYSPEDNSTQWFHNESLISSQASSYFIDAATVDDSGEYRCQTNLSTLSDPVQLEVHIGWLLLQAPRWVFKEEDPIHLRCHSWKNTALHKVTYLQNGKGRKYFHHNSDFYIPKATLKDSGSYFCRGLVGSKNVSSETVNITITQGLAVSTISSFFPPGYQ
T2 sequence (P08637 17-254): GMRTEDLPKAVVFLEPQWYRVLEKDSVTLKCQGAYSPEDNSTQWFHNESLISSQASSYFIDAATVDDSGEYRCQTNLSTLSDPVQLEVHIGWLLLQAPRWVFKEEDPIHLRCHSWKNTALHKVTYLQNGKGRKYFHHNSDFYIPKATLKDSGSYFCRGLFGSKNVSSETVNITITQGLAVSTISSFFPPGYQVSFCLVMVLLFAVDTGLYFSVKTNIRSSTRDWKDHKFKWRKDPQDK
T5 sequence (Q8SPW2 17-208): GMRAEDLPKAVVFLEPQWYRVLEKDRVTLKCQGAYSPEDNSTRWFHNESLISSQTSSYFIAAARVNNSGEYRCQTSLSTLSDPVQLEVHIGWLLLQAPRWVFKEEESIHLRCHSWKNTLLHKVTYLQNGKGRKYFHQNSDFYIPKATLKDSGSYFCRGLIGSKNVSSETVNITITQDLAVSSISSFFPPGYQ
T1 sequence (P08637 17-208 L66R/F176V limits assumed): as the sequence (P08637 17-208 F176V) above, with L50R counted along it
T4 sequence (P08637 17-208): as the sequence (P08637 17-208 F176V) above, with V160F counted along it

B1: scDb-Tribody_01 (other)
VL: SYVLTQPSSVSVAPGQTATISCGGHNIGSKNVHWYQQRPGQSPVLVIYQDNKRPSGIPERFSGSNSGNTATLTISGTQAMDEADYYCQVWDNYSVLFGGGTKLTVL
VH: QVQLVQSGAEVKKPGESLKVSCKASGYTFTSYYMHWVRQAPGQGLEWMGIINPSGGSTSYAQKFQGRVTMTRDTSTSTVYMELSSLRSEDTAVYYCARGSAYYYDFADYWGQGTLVTVSS
notes: Trispecific; LSIV21 scDb VL-VL-VH-VH; connector1 NO:20, no hinge, no Fc, connector2 NO:20
B1 showed an EC50 [1] of 650 pM.

B2: CD16A/BCMA antibody I (bispecific antibody, human IgG1, kappa)
heavy: EVQLLESGGGLVQPGGSLRLSCAASGFTFSNYDMAWVRQAPGKGLEWVSSISTRGDITSYRDSVKGRFTISRDNSKNTLYLQMNSLRAEDTAVYYCARQDYYTDYMGFAYWGQGTLVTVSSASTKGPSVFPLAPSSKSTSGGTAALGCLVKDYFPEPVTVSWNSGALTSGVHTFPAVLQSSGLYSLSSVVTVPSSSLGTQTYICNVNHKPSNTKVDKKVEPKSCDKTHTCPPCPAPEFEGGPSVFLFPPKPKDTLMISRTPEVTCVVVAVSHEDPEVKFNWYVDGVEVHNAKTKPREEQYNSTYRVVSVLTVLHQDWLNGKEYKCKVSNKALPAPIEKTISKAKGQPREPQVYTLPPSREEMTKNQVSLTCLVKGFYPSDIAVEWESNGQPENNYKTTPPVLDSDGSFFLYSKLTVDKSRWQQGNVFSCSVMHEALHNHYTQKSLSLSPGGGGGSGGGGSGGGGSGGGGSGGGGSGGGGSSYVLTQPSSVSVAPGQTATISCGGHNIGSKNVHWYQQRPGQSPVLVIYQDNKRPSGIPERFSGSNSGNTATLTISGTQAMDEADYYCQVWDNYSVLFGGGTKLTVLGGSGGSGGSGGSGGSGGSGGSQVQLVQSGAEVKKPGESLKVSCKASGYTFTSYYMHWVRQAPGQGLEWMGAIEPMYGSTSYAQKFQGRVTMTRDTSTSTVYMELSSLRSEDTAVYYCARGSAYYYDFADYWGQGTLVTVSS
light: AIQMTQSPSSLSASVGDRVTITCRASEDIYNGLAWYQQKPGKAPKLLIYGASSLQDGVPSRFSGSGSGTEFTLTISSLQPEDEATYYCAGPHKYPLTFGGGTKVEIKRTVAAPSVFIFPPSDEQLKSGTASVVCLLNNFYPREAKVQWKVDNALQSGNSQESVTEQDSKDSTYSLSSTLTLSKADYEKHKVYACEVTHQGLSSPVTKSFNRGEC
notes: also called BCMA/CD16A antibody I; anti-BCMA/CD16a
B2: binds [2].

B3: scFv 3G8 (scFv containing the variable domains of the CD16 pan-specific antibody 3G8) (scFv)
chain 1: QVTLKESGPGILQPSQTLSLTCSFSGFSLRTSGMGVGWIRQPSGKGLEWLAHIWWDDDKRYNPALKSRLTISKDTSSNQVFLKIASVDTADTATYYCAQINPAWFAYWGQGTLVTVS
chain 2: DIVLTQSPASLAVSLGQRATISCKASQSVDFDGDSFMNWYQQKPGQPPKLLIYTTSNLESGIPARFSASGSGTDFTLNIHPVEEEDTATYYCQQSNEDPYTFGGGTKLELK
B3 gave a Kd [3] of 8600 pM, a Kd [4] of 64600 pM and an EC50 [5] of 330 pM. It also gave an EC50 [6] of 580 pM, an EC50 [7] of 870 pM and a Kd [8] of 3800 pM. For the same binder, the EC50 [9] was 900 pM and the EC50 [10] was 19700 pM.
